Measurements from paper PMC6035192, “Understanding the indirect DNA read-out specificity of I-CreI Meganuclease”.

Tests used:
[1] = target: T1, I-CreI_D75N (UniProt P05725 1-163, D75N); assay: crystal structure; 2 mM Mg2+; uncleaved DNA; MST at 25 C: 50 mM Tris pH 8.0 (I-CreI_3115; 2 or 10 mM CaCl2) or 50 mM Hepes pH 7.5 (I-CreI_D75N; 10 mM CaCl2), 300 mM NaCl, 0.5 mM TCEP, 0.05% Tween-20; details: protein: recombinant; chain copies: 2; blunt
T1 sequence: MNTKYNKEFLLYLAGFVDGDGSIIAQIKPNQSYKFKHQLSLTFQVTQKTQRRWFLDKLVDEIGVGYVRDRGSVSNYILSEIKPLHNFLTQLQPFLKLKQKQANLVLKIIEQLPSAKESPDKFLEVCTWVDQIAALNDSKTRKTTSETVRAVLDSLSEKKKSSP

[2] = target: T1, I-CreI_D75N; assay: crystal structure; 2 mM Ca2+; MST at 25 C: 50 mM Tris pH 8.0 (I-CreI_3115; 2 or 10 mM CaCl2) or 50 mM Hepes pH 7.5 (I-CreI_D75N; 10 mM CaCl2), 300 mM NaCl, 0.5 mM TCEP, 0.05% Tween-20; details: protein: recombinant; chain copies: 2; blunt; self-annealed palindrome
[3] = target: T2, I-CreI_3115 chain 1;I-CreI_3115 chain 2 (;, UniProt P05725;P05725 1-163;1-163, Y33G;Q38K;Q44K;R68Y;R70S;D75N;I77Y;I132V|G19S;Y33V;Q38R;S40Q;Q44D;R68A;R70S;D75K …); assay: MST; 2 mM CaCl2; labelled DNA; MST at 25 C: 50 mM Tris pH 8.0 (I-CreI_3115; 2 or 10 mM CaCl2) or 50 mM Hepes pH 7.5 (I-CreI_D75N; 10 mM CaCl2), 300 mM NaCl, 0.5 mM TCEP, 0.05% Tween-20; details: protein: recombinant;recombinant; tags: ;; copies: 1;1; label: Cy5 on coding strand (5'); blunt
T2 sequence 1: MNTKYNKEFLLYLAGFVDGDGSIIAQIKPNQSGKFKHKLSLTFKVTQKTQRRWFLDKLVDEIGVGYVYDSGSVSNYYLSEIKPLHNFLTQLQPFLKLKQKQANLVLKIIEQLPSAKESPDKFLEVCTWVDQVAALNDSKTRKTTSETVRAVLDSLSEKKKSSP
T2 sequence 2: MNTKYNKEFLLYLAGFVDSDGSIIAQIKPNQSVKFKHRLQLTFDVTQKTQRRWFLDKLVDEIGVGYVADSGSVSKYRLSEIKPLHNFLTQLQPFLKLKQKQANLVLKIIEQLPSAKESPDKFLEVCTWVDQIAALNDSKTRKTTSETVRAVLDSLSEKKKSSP

B1: I-CreI_D75N_target-null (dsDNA)
DNA 1: TCAAAACTGCGTACGACGTTTTGA
DNA 2: TCAAAACGTCGTACGCAGTTTTGA
binding result [1]: binds

B2: I-CreI_D75N_target (dsDNA)
DNA 1: TCAAAACGTCGTACGACGTTTTGA
DNA 2: TCAAAACGTCGTACGACGTTTTGA
binding result [2]: binds

B3: I-CreI_3115_target (Cy5) (dsDNA)
DNA 1: TCAGACTTCTCCACAGGAGTCAGA
DNA 2: TCTGACTCCTGTGGAGAAGTCTGA
Kd [3]: 90 nM
